From US20180258153A1 (Novo Nordisk, published 2018) come the findings set out here.

Non-standard residues stand in square brackets, D forms with d. No end group written: not given here. Aib = CC(C)(N)C(=O)O

For orientation: IC50 means the concentration at which inhibition is half-maximal. A high value points to weaker potency in that assay.

In assay [1] the target is T1, human GLP-1 receptor (human, UniProt P43220 24-463).
T1 construct: whole, on cells
The assay is described as follows: SPA competition, displacement of 125I-GLP-1(7-36)NH2 from BHK membranes with human GLP-1 receptor; low HSA (max. 0.001%). For orientation: In a radioligand displacement assay an active substance lowers the binding of a labelled ligand.
Method: (§1) For the receptor binding assay in the presence of low HSA (0.005%) 50 μl of the assay buffer was added to each well of an assay plate. […] For the receptor binding assay in the presence of high HSA (2%) 50 μl of the 8% albumin stock was added to each well of an assay plate. […] Cell membrane aliquots were thawed and diluted to their working concentration. Fifty μl were added to each well in the assay plate. […] WGA SPA beads were suspended in assay buffer at 20 mg/ml. The suspension was diluted to 10 mg/ml in assay buffer just prior to addition to the assay plate. Fifty μl were added to each well in the assay plate. […] A 25 μl aliquot was reserved for measuring total counts/well. […] The assay plate was incubated for 2 h at 30° C. […] The assay plate was centrifuged for 10 min. […] The assay plate was read in a Packard TopCount NXT instrument.
(§2) The data from the TopCount instrument were transferred to GraphPad Prism software. Individual replicates were analysed using non-linear regression.

For assay [2], the target named is T1, human GLP-1 receptor. The assay is described as follows: cell-based or functional assay.
Assay [3] concerns the target T1, human GLP-1 receptor. As to the kind of experiment: SPA competition, displacement of 125I-GLP-1(7-36)NH2 from BHK membranes with human GLP-1 receptor; high HSA (2.0%).
Method: as §1, §2

B1: GLP-1 derivative of Example 10 (peptide)
peptide: HXEGTFTSDVSSYLEEQAAREFIAWLVRGRK
modifications: not fully specified; Aib at position 8 (GLP-1 numbering); epsilon-amino of Lys37 acylated with branched side chain: Pre-linker 4xeps-Lys; Branched linker eps-Lys(Bis); two Post-linkers Trx-gGlu, each carrying a C20 diacid Protractor
notes: also called Chem. 30; N{Epsilon-37}-acylated [Aib8,Glu22,Arg26,Arg34,Lys37]-GLP-1-(7-37)-peptide
B1 had an IC50 with human GLP-1 receptor [1] of 19 nM. Also, in the assay with human GLP-1 receptor [2], the “EC50 (pM), in vitro potency, CRE luciferase reporter in BHK cells expressing the human GLP-1 receptor” value (“EC50 (pM), in vitro potency” below) turned out to be 150 pM.

B2: GLP-1 derivative of Example 15 (peptide)
peptide: HXEGTFTSDVSSYLEEQAAREFIAWLVRGRK
modifications: not fully specified; Aib at position 8 (GLP-1 numbering); epsilon-amino of Lys37 acylated with branched side chain: Pre-linker 4xAdo; Branched linker eps-Lys(Bis); two Post-linkers Trx-gGlu-2xAdo, each carrying a C20 diacid Protractor
notes: also called Chem. 35; N{Epsilon-37}-acylated [Aib8,Glu22,Arg26,Arg34,Lys37]-GLP-1-(7-37)-peptide
With B2, the 50% inhibitory concentration (IC50) with human GLP-1 receptor [3] stood at 48 nM; with human GLP-1 receptor [1] it was 0.87 nM. Moreover, the “EC50 (pM), in vitro potency” value with human GLP-1 receptor [2] was 48 pM.

B3: GLP-1 derivative of Example 3 (peptide)
peptide: HXEGTFTSDVSSYLEEQAAREFIAWLVRGRK
modifications: not fully specified; Aib at position 8 (GLP-1 numbering); epsilon-amino of Lys37 acylated with branched side chain: Pre-linker dPEG6; Branched linker eps-Lys(Bis); two Post-linkers Trx-gGlu, each carrying a C20 diacid Protractor
notes: also called Chem. 23; N{Epsilon-37}-acylated [Aib8,Glu22,Arg26,Arg34,Lys37]-GLP-1-(7-37)-peptide
As for B3, in the assay with human GLP-1 receptor [3], the IC50 was found to be 180 nM. For the same molecule, the “EC50 (pM), in vitro potency” value with human GLP-1 receptor [2] is 160 pM.

B4: GLP-1 derivative of Example 5 (peptide)
peptide: HXEGTFTSDVSSYLEEQAAREFIAWLVRGRK
modifications: not fully specified; Aib at position 8 (GLP-1 numbering); epsilon-amino of Lys37 acylated with branched side chain: Pre-linker dPEG20; Branched linker eps-Lys(Bis); two Post-linkers Trx-gGlu, each carrying a C20 diacid Protractor
notes: also called Chem. 25; N{Epsilon-37}-acylated [Aib8,Glu22,Arg26,Arg34,Lys37]-GLP-1-(7-37)-peptide
As for B4, the half-inhibitory concentration (IC50) was 9.7 nM in the assay with human GLP-1 receptor [3] and 0.91 nM with human GLP-1 receptor [1]. Besides, the “EC50 (pM), in vitro potency” value in the assay with human GLP-1 receptor [2] was found to be 53 pM.

B5: GLP-1 derivative of Example 22 (peptide)
peptide: HXEGTFTSDVSSYLEEQAAREFIAWLVRGRK
modifications: Aib at position 8 (GLP-1 numbering); epsilon-amino of Lys37 acylated with branched side chain: Pre-linker 3xAdo; Branched linker eps-Lys(Bis); two Post-linkers Trx-gGlu-3xAdo, each carrying a C20 diacid Protractor (the printed name gives (4R) for the gGlu of one arm and (4S) for the other)
notes: also called Chem. 42; N{Epsilon-37}-acylated [Aib8,Glu22,Arg26,Arg34,Lys37]-GLP-1-(7-37)-peptide
On to B5, for which the IC50 turned out to be 63 nM with human GLP-1 receptor [3] and 1.4 nM with human GLP-1 receptor [1]. Moreover, the “EC50 (pM), in vitro potency” value in the assay with human GLP-1 receptor [2] is 12 pM.

B6: GLP-1 derivative of Example 9 (peptide)
peptide: HXEGTFTSDVSSYLEEQAAREFIAWLVRGRK
modifications: not fully specified; Aib at position 8 (GLP-1 numbering); epsilon-amino of Lys37 acylated with branched side chain: Pre-linker 2xeps-Lys; Branched linker eps-Lys(Bis); two Post-linkers Trx-gGlu, each carrying a C20 diacid Protractor
notes: also called Chem. 29; N{Epsilon-37}-acylated [Aib8,Glu22,Arg26,Arg34,Lys37]-GLP-1-(7-37)-peptide
For the molecule B6, the results for the IC50 in the assay with human GLP-1 receptor [3] and with human GLP-1 receptor [1] were 150 nM and 1.8 nM, respectively. For the same molecule, the “EC50 (pM), in vitro potency” value with human GLP-1 receptor [2] stood at 120 pM.

B7: GLP-1 derivative of Example 13 (peptide)
peptide: HXEGTFTSDVSSYLEEQAAREFIAWLVRGRK
modifications: Aib at position 8 (GLP-1 numbering); epsilon-amino of Lys37 acylated with branched side chain: Pre-linker 8xAdo; Branched linker eps-Lys(Bis); two Post-linkers Trx-gGlu, each carrying a C20 diacid Protractor
notes: also called Chem. 33; N{Epsilon-37}-acylated [Aib8,Glu22,Arg26,Arg34,Lys37]-GLP-1-(7-37)-peptide
For the molecule B7, the figures for the 50% inhibitory concentration (IC50) with human GLP-1 receptor [3] and with human GLP-1 receptor [1] were 32 nM and 0.17 nM, respectively. The “EC50 (pM), in vitro potency” value with human GLP-1 receptor [2] is 47 pM.

B8: GLP-1 derivative of Example 21 (peptide)
peptide: HXEGTFTSDVSSYLEEQAAREFIAWLVRGRK
modifications: not fully specified; Aib at position 8 (GLP-1 numbering); epsilon-amino of Lys37 acylated with branched side chain: Pre-linker 4xAdo; Branched linker eps-Lys(Bis); two Post-linkers Trx-gGlu-Ado, each carrying a C20 diacid Protractor
notes: also called Chem. 41; N{Epsilon-37}-acylated [Aib8,Glu22,Arg26,Arg34,Lys37]-GLP-1-(7-37)-peptide
Turning to B8, the half-maximal inhibitory concentration (IC50) with human GLP-1 receptor [3] was found to be 19 nM; with human GLP-1 receptor [1], 1.5 nM. Also, the “EC50 (pM), in vitro potency” value with human GLP-1 receptor [2] came to 38 pM.

B9: GLP-1 derivative of Example 18 (peptide)
peptide: H[Aib]EGTFTSDVSSYLEEQAAREFIAWLVRGKG
modifications: not fully specified (residue 30)
notes: also called Chem. 38; N{Epsilon-36}-acylated [Aib8,Glu22,Arg26,Arg34,Lys36]-GLP-1-(7-37)-peptide
Turning to B9, the IC50 with human GLP-1 receptor [3] was 24 nM; in the assay with human GLP-1 receptor [1] it was 0.68 nM. In the assay with human GLP-1 receptor [2], the “EC50 (pM), in vitro potency” value was determined as 37 pM.

B10: GLP-1 derivative of Example 17 (peptide)
peptide: H[Aib]EGTFTSDVSSYLEEQAAREFIAWLVRKRG
modifications: not fully specified (residue 29)
notes: also called Chem. 37; N{Epsilon-35}-acylated [Aib8,Glu22,Arg26,Arg34,Lys35]-GLP-1-(7-37)-peptide
Take B10: the values for the IC50 in the assay with human GLP-1 receptor [3] and in the assay with human GLP-1 receptor [1] were 77 nM and 0.64 nM, respectively. The “EC50 (pM), in vitro potency” value with human GLP-1 receptor [2] was determined as 20 pM.
